From article PMC11163200, “C3d-Targeted factor H inhibits tissue complement in disease models and reduces glomerular injury without affecting circulating complement” (Molecular Therapy, 2024)

Legend:
Conditions in all cases: both partners purified
recombinant C3d [1] = target: T1, recombinant C3d ( (human, cynomolgus monkey or …, UniProt P01024 1002-1303)); test: SPR; Biacore 3000 or T200, 25°C; recombinant C3d amine-coupled on a CM5 chip at medium-high density (2,500 RU); CR2-fH1–5 injected at 0–1,000 nM, 30 μL/min; Langmuir 1:1 fit
T1 construct: C3d fragment of complement C3, recombinant, amine-coupled to the CM5 chip; source: recombinant
T1 sequence (P01024 1002-1303): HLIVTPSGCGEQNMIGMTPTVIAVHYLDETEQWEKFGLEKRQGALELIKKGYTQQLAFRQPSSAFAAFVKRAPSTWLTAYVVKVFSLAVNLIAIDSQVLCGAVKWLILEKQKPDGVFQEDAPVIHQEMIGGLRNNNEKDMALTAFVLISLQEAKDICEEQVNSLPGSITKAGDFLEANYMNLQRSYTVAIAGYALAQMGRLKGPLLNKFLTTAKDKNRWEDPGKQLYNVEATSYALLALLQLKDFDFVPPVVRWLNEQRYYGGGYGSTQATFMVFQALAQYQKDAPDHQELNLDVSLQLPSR

recombinant C3d [2] = target: T1, recombinant C3d; test: SPR; Biacore 3000 or T200, 25°C; recombinant C3d amine-coupled on a CM5 chip at medium density (750 RU); CR2-fH1–5 injected at 0–1,000 nM, 30 μL/min; Langmuir 1:1 fit
recombinant C3d [3] = target: T1, recombinant C3d; test: SPR; Biacore 3000 or T200, 25°C; recombinant C3d amine-coupled on a CM5 chip at high density (4,200 RU); CR2-fH1–5 injected at 0–1,000 nM, 30 μL/min; Langmuir 1:1 fit
recombinant C3d [4] = target: T1, recombinant C3d; test: SPR; Biacore 3000 or T200, 25°C; recombinant C3d amine-coupled on a CM5 chip at low density (10 RU); CR2-fH1–5 injected at 0–1,000 nM, 30 μL/min, 120 s association, 180 s dissociation; Langmuir 1:1 fit

- Kd (recombinant C3d [1]): 1890 nM
- Kd (recombinant C3d [2]): 1260 nM
- Kd (recombinant C3d [3]): 1890 nM
- Kd (recombinant C3d [4]): 1080 nM
B1: TT30 (other)
chain: ISCGSPPPILNGRISYYSTPIAVGTVIRYSCSGTFRLIGEKSLLCITKDKVDGTWDKPAPKCEYFNKYSSCPEPIVPGGYKIRGSTPYRHGDSVTFACKTNFSMNGNKSVWCQANNMWGPTRLPTCVSVFPLECPALPMIHNGHHTSENVGSIAPGLSVTYSCESGYLLVGEKIINCLSSGKWSAVPPTCEEARCKSLGRFPNGKVKEPPILRVGVTANFFCDEGYRLQGPPSSRCVIAGQGVAWTKMPVCEEEDCNELPPRRNTEILTGSWSDQTYPEGTQAIYKCRPGYRSLGNVIMVCRKGEWVALNPLRKCQKRPCGHPGDTPFGTFTLTGGNVFEYGVKAVYTCNEGYQLLGEINYRECDTDGWTNDIPICEVVKCLPVTAPENGKIVSSAMEPDREYHFGQAVRFVCNSGYKIEGDEEMHCSDDGFWSKEKPKCVEISCKSPDVINGSPISQKIIYKENERFQYKCNMGYEYSERGDAVCTESGWRPLPSCEEKSCDNPYIPNGDYSPLRIKHRTGDEITYQCRNGFYPATRGNTAKCTSTGWIPAPRCTL
modifications: Limits are not printed. TT30 is taken as CR2 SCR1-4 (the C3d-binding end) fused directly to factor H SCR1-5, from general knowledge of TT30, with limits from the UniProt Sushi domain features. …
